Data taken from the supplement of paper PMC7125110.
± gives the standard error. This sample holds only a part of the variants without activity.

B1: glmS ribozyme (parent)
chain: AUAAAAGCGCCAGAACUACAGAAAUGUAGUUGACGAGGAGGAGGUUUAUCGAAUUUUCGGCGGAUGCCUCCAAA

Legend:
Conditions in all cases: with glucosamine-6-phosphate
glucosamine-6-phosphate [1] = variants of: B1; assay: self-cleavage kobs at 40 uM GlcN6P; higher = faster cleavage; RNA array
Summary of the method: (§1)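 kcat and KM were obtained from weighted Michaelis–Menten fits across concentrations of kobs values. Those came from one- or two-exponential decay fits to per-tile medians normalised to baseline and to non-cleaving reference variants. The variants were barcoded ribozymes transcribed in situ by E. coli RNA polymerase on sequenced MiSeq chips and tracked through a hybridised Cy3 probe at 37 °C, with 40 μM to 10 mM glucosamine-6-phosphate in HEPES/KCl/Mg(OAc)2 buffer flowed in.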

glucosamine-6-phosphate [2] = variants of: B1; assay: self-cleavage kobs at 160 uM GlcN6P; higher = faster cleavage; RNA array
Summary of the method: as §1

glucosamine-6-phosphate [3] = variants of: B1; assay: self-cleavage kobs at 640 uM GlcN6P; higher = faster cleavage; RNA array
Summary of the method: as §1

glucosamine-6-phosphate [4] = variants of: B1; assay: self-cleavage kobs at 2500 uM GlcN6P; higher = faster cleavage; RNA array
Summary of the method: as §1

glucosamine-6-phosphate [5] = variants of: B1; assay: self-cleavage kobs at 10000 uM GlcN6P; higher = faster cleavage; RNA array
Summary of the method: as §1

| Variant | self-cleavage kobs at 40 uM GlcN6P (glucosamine-6-phosphate [1]) [s⁻¹] | self-cleavage kobs at 160 uM GlcN6P (glucosamine-6-phosphate [2]) [s⁻¹] | self-cleavage kobs at 640 uM GlcN6P (glucosamine-6-phosphate [3]) [s⁻¹] | self-cleavage kobs at 2500 uM GlcN6P (glucosamine-6-phosphate [4]) [s⁻¹] | self-cleavage kobs at 10000 uM GlcN6P (glucosamine-6-phosphate [5]) [s⁻¹] |
| --- | --- | --- | --- | --- | --- |
| G62A A64G | < 1e-05 |  |  |  |  |
| A14U G35C | < 1e-05 | < 1e-05 | < 1e-05 | < 1e-05 | < 1e-05 |
| C11G C16A A33U C58G | < 1e-05 |  |  |  |  |
| C10A A33C A64C | < 1e-05 |  |  | < 1e-05 | < 1e-05 |
| G13U C16G U31G C34U | < 1e-05 |  |  |  |  |
| A12G G29U G44A G63A | < 1e-05 |  |  |  | < 1e-05 |
| C8G C50U | < 1e-05 | < 1e-05 | < 1e-05 | < 1e-05 | < 1e-05 |
| A6C G40U | < 1e-05 | < 1e-05 | < 1e-05 |  |  |
| G7U G37A C58U U69G | 7.21e-05 ± 2.9e-05 |  |  |  |  |
| G35C C71U | < 1e-05 |  | < 1e-05 | < 1e-05 | < 1e-05 |
| G32U A39U G60A C67U | < 1e-05 |  |  |  | < 1e-05 |
| G7U A12C G29C | < 1e-05 | < 1e-05 | < 1e-05 | < 1e-05 |  |
| A6G G32A U49G U55A | < 1e-05 |  |  |  | < 1e-05 |
| A14G U69A | 0.000118 ± 2.8e-05 | 0.000124 ± 2.5e-05 | 0.000315 ± 9.3e-05 | 0.000142 ± 2.2e-05 | 0.000397 ± 9.9e-05 |
| A12U G44C U65A | < 1e-05 |  |  |  |  |
| C34U U65A C67G | 0.000176 ± 7.1e-05 |  |  |  |  |
| G32A A52U C71A | < 1e-05 |  |  |  |  |
| C10G A36C G43C | < 1e-05 |  | < 1e-05 |  | < 1e-05 |
| G7U G63A | < 1e-05 |  |  |  | < 1e-05 |
| G38C G63U | < 1e-05 |  |  |  |  |
| G9U G38A U56C G63U | < 1e-05 |  |  |  | < 1e-05 |
| C8A C50U C67G | < 1e-05 |  |  |  |  |
| A14C A48G U69C | < 1e-05 |  |  |  |  |
| U54A C61U C71G | < 1e-05 |  |  |  |  |
| C10A U30G A39U C67A | < 1e-05 |  |  |  |  |
| C11U U65A | < 1e-05 |  | 0.000121 ± 3.6e-05 | 9.22e-05 ± 2e-05 |  |

| Variant | self-cleavage kobs at 40 uM GlcN6P (glucosamine-6-phosphate [1]) [s⁻¹] | self-cleavage kobs at 160 uM GlcN6P (glucosamine-6-phosphate [2]) [s⁻¹] | self-cleavage kobs at 640 uM GlcN6P (glucosamine-6-phosphate [3]) [s⁻¹] | self-cleavage kobs at 2500 uM GlcN6P (glucosamine-6-phosphate [4]) [s⁻¹] | self-cleavage kobs at 10000 uM GlcN6P (glucosamine-6-phosphate [5]) [s⁻¹] |
| --- | --- | --- | --- | --- | --- |
| G32U C50G C68G | 0.00012 ± 2.5e-05 |  |  |  | 9.96e-05 ± 1.7e-05 |
| G37U G40U C67G | < 1e-05 |  | < 1e-05 | < 1e-05 |  |
| A42G U45C | 5.93e-05 ± 2.9e-05 |  |  |  |  |
| C16U G29C | 0.000447 ± 6.3e-05 | 0.000622 ± 9.5e-05 | 0.00244 ± 0.00032 | 0.00422 ± 0.00072 | 0.0179 ± 0.0033 |
| A15G U30G C70U | 0.000184 ± 5.6e-05 |  | 0.00102 ± 0.00026 |  | 0.0318 ± 0.013 |
| G38C C67U | < 1e-05 |  |  | < 1e-05 | < 1e-05 |
| C10U G37U G43U A52G G60U | < 1e-05 |  |  | < 1e-05 | < 1e-05 |
| A53U U56C | 5.21e-05 ± 8e-06 | 0.000101 ± 1.5e-05 | 0.000782 ± 9.1e-05 | 0.00118 ± 0.00021 | 0.0038 ± 0.00042 |
| G37U G40A G41U A52G | < 1e-05 |  |  |  |  |
| C8G G32U G38C G51U | < 1e-05 |  |  |  |  |
| U46G U65A C70U | 8.31e-05 ± 1.9e-05 |  |  |  | 0.00117 ± 0.00024 |
| G35C C50U C70G | < 1e-05 |  |  |  |  |
| A36C G62C | < 1e-05 | < 1e-05 |  |  | < 1e-05 |
| U2C A33G | < 1e-05 | < 1e-05 |  | < 1e-05 | < 1e-05 |
| G9A A48G | < 1e-05 |  | < 1e-05 | < 1e-05 | < 1e-05 |
| A33U U49A C71U | < 1e-05 |  |  |  | < 1e-05 |
| C11G A14U A39U | < 1e-05 |  |  |  |  |
| G51A A64C | < 1e-05 | < 1e-05 |  | < 1e-05 | < 1e-05 |
| U30C A39C G41U | < 1e-05 |  |  |  | < 1e-05 |
| A14U U30G C34U G40A A52G C68G | < 1e-05 |  |  |  | < 1e-05 |
| G32U A36G G59A | < 1e-05 |  |  | < 1e-05 | < 1e-05 |
| G41C G44C | < 1e-05 | < 1e-05 | < 1e-05 | < 1e-05 | < 1e-05 |
| G9C A53C | < 1e-05 | < 1e-05 | < 1e-05 |  | < 1e-05 |
| U31G A39G | 0.0004 ± 6e-05 | 0.00122 ± 0.00027 | 0.00522 ± 0.0013 | 0.0142 ± 0.0046 |  |
| C61G A64G | < 1e-05 |  | < 1e-05 | < 1e-05 | < 1e-05 |
| A12U G38C A52G C58A | < 1e-05 |  |  |  |  |
